Results: PMC3223204, “Implantation Serine Proteinase 1 Exhibits Mixed Substrate Specificity that Silences Signaling via Proteinase-Activated Receptors” (PLoS ONE, 2011)

Molecular target: T1, rat PAR4 (Rattus norvegicus, UniProt Q920E0)
T1 construct: rat platelets that express only functional PAR4 but neither PAR1 nor PAR2; endogenous in cells; host or cells: rat platelets from platelet-rich plasma
T1 sequence (Q920E0 17-395): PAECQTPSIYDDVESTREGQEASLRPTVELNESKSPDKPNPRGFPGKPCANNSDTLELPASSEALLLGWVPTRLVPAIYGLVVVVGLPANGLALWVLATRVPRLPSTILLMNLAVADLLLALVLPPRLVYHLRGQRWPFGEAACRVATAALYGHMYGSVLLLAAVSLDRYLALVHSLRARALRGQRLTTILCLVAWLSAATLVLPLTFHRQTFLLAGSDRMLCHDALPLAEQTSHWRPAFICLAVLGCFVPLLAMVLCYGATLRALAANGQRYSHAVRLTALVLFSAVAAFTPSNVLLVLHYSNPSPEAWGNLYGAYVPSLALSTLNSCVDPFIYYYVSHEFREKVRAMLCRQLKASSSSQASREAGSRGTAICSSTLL
Assay: Calcium signaling assay, PAR4 activation/disarming in rat platelets
Format: cell-based
Procedure: Cell lines (grown to about 85% confluence and disaggregated with calcium-free isotonic phosphate-buffered saline containing 0.2 mM EDTA) and rat platelets (harvested from platelet-rich anti-coagulated plasma) were prepared and used as previously described. Cells were incubated for 25 min at room temperature with Fluo-3 acetoxymethyl ester (final concentration, 22 µM) along with 0.4 mM sulfinpyrazone. Cells were washed twice by centrifugation (using the following buffer without calcium) and resuspended in the calcium signaling buffer: 150 mM NaCl, 3 mM KCl, 1.5 mM CaCl2, 20 mM HEPES, 10 mM dextrose, and 0.25 mM sulfinpyrazone, pH 7.4.
Fluorescence was measured at 24 °C with an excitation wavelength of 480 nm and an emission recorded at 530 nm using an Aminco Bowman Series 2 Luminescence spectrometer (ThermoSpectronic Model FA354, Spectronic Unicam, Rochester, NY). The fluorescence signals caused by the addition of test agonists (trypsin, PAR-activating peptide or rISP1, added to 2 ml of a cell suspension of ~3 x 10^5 cells/ml) were compared with the fluorescence peak height yielded by replicate cell suspensions treated with 2 µM ionophore A23187. This concentration of A23187 was at the plateau of its concentration-response curve for a fluorescence response in Fluo-3-loaded cultured cells. Under these conditions, the calculated values for intracellular calcium in the HEK and KNRK cells were [picture] 30 nM under basal conditions and about 340 nM upon exposure to A23187 [8, 9].
Previous work has shown that the fluorescence response of a cell preparation, as a percentage relative to the signal generated by 2 µM A23187, is a valid reference standard for the comparative determination of calcium signals for all PAR agonists. The cellular calcium response was therefore recorded as a percentage of the response generated by 2 µM ionophore A23187 [6]. Concentration-effect curves for recombinant enzyme (rISP1) were obtained by measuring the calcium signals generated by measuring the effects (receptor activation or disarming) of increasing enzyme concentrations in replicate cell suspensions (2 ml).
Receptor activation was monitored as an enzyme-stimulated increase in fluorescence emission (E530). As outlined in the following paragraph, receptor disarming or disabling was ascertained by the ability of ISP1 pre-treatment of the cells to abrogate the calcium signal caused by the subsequent addition of either a PAR-activating enzyme (thrombin for PARs 1 & 4; trypsin for PAR2) or a PAR-activating peptide (a reduced response to the activating peptide reflects receptor disabling). […]

- Cellular response to PAR4-activating peptide after ISP1 pre-treatment (AYPGKF-NH2 (100 µM), concentration-dependent): diminished
- Activation of a calcium signal via PAR4 (enzyme alone): did not activate a calcium signal
- residual PAR4 activity triggered by thrombin (pre-treatment with 5 Units/ml ISP1, then thrombin (0.5 units/ml)): ~75%
- residual PAR4 activity (% of control) (pre-treatment with 20 units ISP1/ml, then thrombin (0.5 units/ml)): ~20%
B1: ISP1: recombinant implantation serine proteinase 1 expressed in Pichia pastoris, also known as Mouse Prss28 (protein, UniProt Q924N9 27-274, looked up)
Serine protease 28: KPVGIVGGQRTPPGKWPWQVSLRMYSYEVNSWVHICGGSIIHPQWILTAAHCIQSQDADPAVYRVQVGEVYLYKEQELLNISRIIIHPDYNDVSKRFDLALMQLTALLVTSTNVSPVSLPKDSSTFDSTDQCWLVGWGNLLQRVPLQPPYQLHEVKIPIQDNKSCKRAYRKKSSDEHKAVAIFDDMLCAGTSGRGPCFGDSGGPLVCWKSNKWIQVGVVSKGIDCSNNLPSIFSRVQSSLAWIHQHIQ
modifications: recombinant, Pichia pastoris-expressed
notes: recombinant implantation serine proteinase 1 expressed in Pichia pastoris, also known as Mouse Prss28
